Data set [1] deals with PAD2 and PAD4. Kind of data set: Citrullination site mapping of fibrinogen and vimentin by trypsin digestion and mass spectrometry (protein-level sheet, one search over native, PAD2-cit and PAD4-cit samples). The data set is classed as biochemical, human. The following applies: modified residues found per protein; Deamidated [R..] = deamidated (citrullinated) arginine positions; trypsin digest, Sequest HT; not split by sample (native, PAD2-citrullinated, PAD4-citrullinated fibrinogen and vimentin). The source says:
(§1) Description: Raw mass spectrometry data for proteolytic mapping of fibrinogen, vimentin, and hnRNP A2/B1 by cathepsins B, S, and H (sheets 1-6); citrullination site mapping of fibrinogen and vimentin by trypsin digestion (sheets 7-8); and the natural antigen processing assay with native, PAD2-citrullinated (PAD2-cit), and PAD4-citrullinated (PAD4-cit) fibrinogen (sheets 9-11).

Data set [2] relates to recombinant human PAD2 and PAD4. The data set is described as follows: Citrullination site mapping by trypsin digestion and mass spectrometry; protein-level modifications over native, PAD2- and PAD4-citrullinated samples combined. Type of data set: biochemical. As to conditions: trypsin digest, Sequest HT search; co-identified proteins in the fibrinogen and vimentin samples (native, PAD2-cit, PAD4-cit); not split by sample or enzyme.
Source text: as §1

B1: C9JEU5 (protein)
chain: MSWSLHPRNLILYFYALLFLSSTCVAYVATRDNCCILDERFGSYCPTTCGIADFLSTYQTKVDKDLQSLEDILHQVENKTSEVKQLIKAIQLTYNPDESSKPNMIDAATLKSRKMLEEIMKYEASILTHDSSIRYLQEIYNSNNQKIVNLKEKVAQLEAQCQEPCKDTVQIHDITGKVKVDSPSLDCQDIANKGAKQSGLYFIKPLKANQQFLVYCEIDGSGNGWTVFQKRLDGSVDFKKNWIQYKEGFGHLSPTGTTEFWLGNEKIHLISTQSAIPYALRVELEDWNGRTSTADYAMFKVGPEADKYRLTYAYFAGGDAGDAFDGFDFGDDPSDKFFTSHNGMQFSTWDNDNDKFEGNCAEQDGSGWWMNKCHAGHLNGVYYQGGTYSKASTPNGYDNGIIWATWKTRWYSMKKTTMKIIPFNRLTIGEGQQHHLGGAKQAGDV
For B1, in data set [1], the Modifications entry is “Deamidated [R113; R134; R281; R290; R309; R409; R425]”.

B2: Q9UM07 (protein)
chain: MAQGTLIRVTPEQPTHAVCVLGTLTQLDICSSAPEDCTSFSINASPGVVVDIAHGPPAKKKSTGSSTWPLDPGVEVTLTMKVASGSTGDQKVQISYYGPKTPPVKALLYLTGVEISLCADITRTGKVKPTRAVKDQRTWTWGPCGQGAILLVNCDRDNLESSAMDCEDDEVLDSEDLQDMSLMTLSTKTPKDFFTNHTLVLHVARSEMDKVRVFQATRGKLSSKCSVVLGPKWPSHYLMVPGGKHNMDFYVEALAFPDTDFPGLITLTISLLDTSNLELPEAVVFQDSVVFRVAPWIMTPNTQPPQEVYACSIFENEDFLKSVTTLAMKAKCKLTICPEEENMDDQWMQDEMEIGYIQAPHKTLPVVFDSPRNRGLKEFPIKRVMGPDFGYVTRGPQTGGISGLDSFGNLEVSPPVTVRGKEYPLGRILFGDSCYPSNDSRQMHQALQDFLSAQQVQAPVKLYSDWLSVGHVDEFLSFVPAPDRKGFRLLLASPRSCYKL
As to B2, in data set [1], the Modifications result is “Deamidated [R123; R137; R156; R205; R212; R218; R372; R374; R383; R394; R419; R427; R441; R484; R488; R495; R536; R544; R550; R555; R609; R639; R650]”.

B3: P03971 (protein, UniProt P03971 1-560, looked up)
chain: MRDLPLTSLALVLSALGALLGTEALRAEEPAVGTSGLIFREDLDWPPGSPQEPLCLVALGGDSNGSSSPLRVVGALSAYEQAFLGAVQRARWGPRDLATFGVCNTGDRQAALPSLRRLGAWLRDPGGQRLVVLHLEEVTWEPTPSLRFQEPPPGGAGPPELALLVLYPGPGPEVTVTRAGLPGAQSLCPSRDTRYLVLAVDRPAGAWRGSGLALTLQPRGEDSRLSTARLQALLFGDDHRCFTRMTPALLLLPRSEPAPLPAHGQLDTVPFPPPRPSAELEESPPSADPFLETLTRLVRALRVPPARASAPRLALDPDALAGFPQGLVNLSDPAALERLLDGEEPLLLLLRPTAATTGDPAPLHDPTSAPWATALARRVAAELQAAAAELRSLPGLPPATAPLLARLLALCPGGPGGLGDPLRALLLLKALQGLRVEWRGRDPRGPGRAQRSAGATAADGPCALRELSVDLRAERSVLIPETYQANNCQGVCGWPQSDRNPRYGNHVVLLLKMQVRGAALARPPCCVPTAYAGKLLISLSEERISAHHVPNMVATECGCR
modifications: full-length
In the case of B3, the Modifications result in data set [1] is “Deamidated [R499; R516; R522; R560]”.

B4: A0A0G2JMB2 (protein)
chain: ASPTSPKVFPLSLDSTPQDGNVVVACLVQGFFPQEPLSVTWSESGQNVTARNFPPSQDASGDLYTTSSQLTLPATQCPDGKSVTCHVKHYTNPSQDVTVPCPVPPPPPCCHPRLSLHRPALEDLLLGSEANLTCTLTGLRDASGATFTWTPSSGKSAVQGPPERDLCGCYSVSSVLPGCAQPWNHGETFTCTAAHPELKTPLTANITKSGNTFRPEVHLLPPPSEELALNELVTLTCLARGFSPKDVLVRWLQGSQELPREKYLTWASRQEPSQGTTTFAVTSILRVAAEDWKKGDTFSCMVGHEALPLAFTQKTIDRLAGKPTHVNVSVVMAEVDGTCY
In the case of B4, the Modifications result in data set [1] was “Deamidated [R240; R250; R260]”.

B5: Q16610 (protein)
chain: MGTTARAALVLTYLAVASAASEGGFTATGQRQLRPEHFQEVGYAAPPSPPLSRSLPMDHPDSSQHGPPFEGQSQVQPPPSQEATPLQQEKLLPAQLPAEKEVGPPLPQEAVPLQKELPSLQHPNEQKEGTPAPFGDQSHPEPESWNAAQHCQQDRSQGGWGHRLDGFPPGRPSPDNLNQICLPNRQHVVYGPWNLPQSSYSHLTRQGETLNFLEIGYSRCCHCRSHTNRLECAKLVWEEAMSRFCEAEFSVKTRPHWCCTRQGEARFSCFQEEAPQPHYQLRACPSHQPDISSGLELPFPPGVPTLDNIKNICHLRRFRSVPRNLPATDPLQRELLALIQLEREFQRCCRQGNNHTCTWKAWEDTLDKYCDREYAVKTHHHLCCRHPPSPTRDECFARRAPYPNYDRDILTIDIGRVTPNLMGHLCGNQRVLTKHKHIPGLIHNMTARCCDLPFPEQACCAEEEKLTFINDLCGPRRNIWRDPALCCYLSPGDEQVNCFN
For the molecule B5, the Modifications entry in data set [1] is “Deamidated [R171; R343]”.

B6: Q9NSB2 (protein)
chain: MSCRSYRVSSGHRVGNFSSCSAMTPQNLNRFRANSVSCWSGPGFRGLGSFGSRSVITFGSYSPRIAAVGSRPIHCGVRFGAGCGMGFGDGRGVGLGPRADSCVGLGFGAGSGIGYGFGGPGFGYRVGGVGVPAAPSITAVTVNKSLLTPLNLEIDPNAQRVKKDEKEQIKTLNNKFASFIDKVRFLEQQNKLLETKWSFLQEQKCIRSNLEPLFESYITNLRRQLEVLVSDQARLQAERNHLQDVLEGFKKKYEEEVVCRANAENEFVALKKDVDAAFMNKSDLEANVDTLTQEIDFLKTLYMEEIQLLQSHISETSVIVKMDNSRDLNLDGIIAEVKAQYEEVARRSRADAEAWYQTKYEEMQVTAGQHCDNLRNIRNEINELTRLIQRLKAEIEHAKAQRAKLEAAVAEAEQQGEATLSDAKCKLADLECALQQAKQDMARQLCEYQELMNAKLGLDIEIATYRRLLEGEESRLCEGVGPVNISVSSSRGGLVCGPEP
Regarding B6, in data set [1], the Modifications result was “Deamidated [R184]”.

B7: P04003 (protein, UniProt P04003 1-597, looked up)
chain: MHPPKTPSGALHRKRKMAAWPFSRLWKVSDPILFQMTLIAALLPAVLGNCGPPPTLSFAAPMDITLTETRFKTGTTLKYTCLPGYVRSHSTQTLTCNSDGEWVYNTFCIYKRCRHPGELRNGQVEIKTDLSFGSQIEFSCSEGFFLIGSTTSRCEVQDRGVGWSHPLPQCEIVKCKPPPDIRNGRHSGEENFYAYGFSVTYSCDPRFSLLGHASISCTVENETIGVWRPSPPTCEKITCRKPDVSHGEMVSGFGPIYNYKDTIVFKCQKGFVLRGSSVIHCDADSKWNPSPPACEPNSCINLPDIPHASWETYPRPTKEDVYVVGTVLRYRCHPGYKPTTDEPTTVICQKNLRWTPYQGCEALCCPEPKLNNGEITQHRKSRPANHCVYFYGDEISFSCHETSRFSAICQGDGTWSPRTPSCGDICNFPPKIAHGHYKQSSSYSFFKEEIIYECDKGYILVGQAKLSCSYSHWSAPAPQCKALCRKPELVNGRLSVDKDQYVEPENVTIQCDSGYGVVGPQSITCSGNRTWYPEVPKCEWETPEGCEQVLTGKRLMQCLPNPEDVKMALEVYKLSLEIEQLELQRDSARQSTLDKEL
modifications: full-length
B7: in data set [1], the Modifications entry is “Deamidated [R159; R329; R331; R485; R493]”.

B8: Interferon alpha-21 (protein, UniProt P01568 24-189, looked up)
Interferon alpha-21: CDLPQTHSLGNRRALILLAQMGRISPFSCLKDRHDFGFPQEEFDGNQFQKAQAISVLHEMIQQTFNLFSTKDSSATWEQSLLEKFSTELNQQLNDLEACVIQEVGVEETPLMNVDSILAVKKYFQRITLYLTEKKYSPCAWEVVRAEIMRSFSLSKIFQERLRRKE
Regarding B8, the “Modifications (Deamidated [R...] = citrullinated arginine positions found)” value in data set [2] was “Deamidated [R56]”.

B9: Fibrinogen a: α chain of human fibrinogen (Cayman Chemical), RA autoantigen; native or citrullinated by PAD2 or PAD4 (protein)
chain: MFSMRIVCLVLSVVGTAWTADSGEGDFLAEGGGVRGPRVVERHQSACKDSDWPFCSDEDWNYKCPSGCRMKGLIDEVNQDFTNRINKLKNSLFEYQKNNKDSHSLTTNIMEILRGDFSSANNRDNTYNRVSEDLRSRIEVLKRKVIEKVQHIQLLQKNVRAQLVDMKRLEVDIDIKIRSCRGSCSRALAREVDLKDYEDQQKQLEQVIAKDLLPSRDRQHLPLIKMKPVPDLVPGNFKSQLQKVPPEWKALTDMPQMRMELERPGGNEITRGGSTSYGTGSETESPRNPSSAGSWNSGSSGPGSTGNRNPGSSGTGGTATWKPGSSGPGSTGSWNSGSSGTGSTGNQNPGSPRPGSTGTWNPGSSERGSAGHWTSESSVSGSTGQWHSESGSFRPDSPGSGNARPNNPDWGTFEEVSGNVSPGTRREYHTEKLVTSKGDKELRTGKEKVTSGSTTTTRRSCSKTVTKTVIGPDGHKEVTKEVVTSEDGSDCPEAMDLGTL
For the molecule B9, the Modifications result in data set [1] is “Deamidated [R42; R84; R114; R123; R129; R160; R216; R218; R258; R263; R271; R287; R308; R510; R512; R547; R573; R591]”.

B10: P0DPH8 (protein, UniProt P0DPH8 1-450, looked up)
chain: MRECISIHVGQAGVQIGNACWELYCLEHGIQPDGQMPSDKTIGGGDDSFNTFFSETGAGKHVPRAVFVDLEPTVVDEVRTGTYRQLFHPEQLITGKEDAANNYARGHYTIGKEIVDLVLDRIRKLADLCTGLQGFLIFHSFGGGTGSGFASLLMERLSVDYGKKSKLEFAIYPAPQVSTAVVEPYNSILTTHTTLEHSDCAFMVDNEAIYDICRRNLDIERPTYTNLNRLIGQIVSSITASLRFDGALNVDLTEFQTNLVPYPRIHFPLATYAPVISAEKAYHEQLSVAEITNACFEPANQMVKCDPRHGKYMACCMLYRGDVVPKDVNAAIATIKTKRTIQFVDWCPTGFKVGINYQPPTVVPGGDLAKVQRAVCMLSNTTAIAEAWARLDHKFDLMYAKRAFVHWYVGEGMEEGEFSEAREDLAALEKDYEEVGVDSVEAEAEEGEEY
modifications: full-length
For the molecule B10, in data set [1], the Modifications result is “Deamidated [R64; R84; R105; R339; R373; R422]”.

(Values after paper PMC9958131 (Nature Communications, 2023).)
